The numbers were not newly measured in PMC6160412, which cites them from elsewhere.

Like-named read-outs stand apart in the source and are kept apart here.

The target in the series is Neurexin-1β (+S4) (Mus musculus) (UniProt P0DI97). Put plainly: SPR.
Chain of Neurexin-1β (+S4) (Mus musculus) (P0DI97 47-392): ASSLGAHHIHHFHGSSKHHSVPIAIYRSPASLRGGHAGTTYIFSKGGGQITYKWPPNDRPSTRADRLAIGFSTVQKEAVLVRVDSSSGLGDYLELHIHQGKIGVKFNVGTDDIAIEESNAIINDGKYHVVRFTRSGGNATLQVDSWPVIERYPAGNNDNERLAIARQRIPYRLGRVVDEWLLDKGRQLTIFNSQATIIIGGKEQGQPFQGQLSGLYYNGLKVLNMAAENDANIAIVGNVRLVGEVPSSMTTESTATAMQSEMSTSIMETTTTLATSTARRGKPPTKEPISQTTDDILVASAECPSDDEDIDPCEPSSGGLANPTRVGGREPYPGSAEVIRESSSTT

Chain of Neuroligin-1 (Q99K10 46-843): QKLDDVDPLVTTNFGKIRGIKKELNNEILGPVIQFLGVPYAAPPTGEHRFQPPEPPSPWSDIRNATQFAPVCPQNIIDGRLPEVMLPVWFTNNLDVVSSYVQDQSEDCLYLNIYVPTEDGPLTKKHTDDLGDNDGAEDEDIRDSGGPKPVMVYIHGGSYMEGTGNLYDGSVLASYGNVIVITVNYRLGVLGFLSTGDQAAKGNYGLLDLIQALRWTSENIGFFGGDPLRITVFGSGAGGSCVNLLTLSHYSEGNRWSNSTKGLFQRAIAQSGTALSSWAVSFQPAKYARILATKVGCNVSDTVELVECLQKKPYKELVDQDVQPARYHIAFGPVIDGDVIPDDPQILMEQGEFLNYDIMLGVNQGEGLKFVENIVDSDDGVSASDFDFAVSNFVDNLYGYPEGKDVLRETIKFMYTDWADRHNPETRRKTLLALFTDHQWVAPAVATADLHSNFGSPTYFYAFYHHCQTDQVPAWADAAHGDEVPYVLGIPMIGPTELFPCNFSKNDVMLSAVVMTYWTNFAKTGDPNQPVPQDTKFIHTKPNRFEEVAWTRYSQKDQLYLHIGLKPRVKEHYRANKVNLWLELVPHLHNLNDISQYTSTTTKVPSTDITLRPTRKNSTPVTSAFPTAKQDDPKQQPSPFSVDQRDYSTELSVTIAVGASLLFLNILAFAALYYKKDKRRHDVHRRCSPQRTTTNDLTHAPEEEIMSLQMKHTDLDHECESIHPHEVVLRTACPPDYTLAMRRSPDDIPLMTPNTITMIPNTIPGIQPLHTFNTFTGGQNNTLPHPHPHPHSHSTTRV

In the case of Neuroligin-1 (from UniProt Q99K10), the equilibrium dissociation constant (Kd) is 700 nM. Besides, the Kd (record 2) is 2600 nM.
For the substance Neuroligin-4 (from UniProt Q8N0W4), the equilibrium dissociation constant (Kd) was 2500 nM. Moreover, the Kd (record 2) is 9700 nM.
